US20200377597A1 (SUNSHINE GUOJIAN PHARMACEUTICAL SHANGHAI CO LT, published 2020)

T1: ICOS-hFc (UniProt Q9Y6W8 21-141)
T1 construct: Bought reagent; construct not described; not shown: hFc of a bought product
T1 sequence (looked up): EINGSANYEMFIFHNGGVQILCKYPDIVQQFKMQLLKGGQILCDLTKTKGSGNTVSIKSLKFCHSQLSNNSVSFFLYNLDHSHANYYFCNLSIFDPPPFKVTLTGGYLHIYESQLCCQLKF


What was measured:
[1] = biological target: human PD-1 (human, UniProt Q15116 25-288); test: cell-based or functional assay
[2] = biological target: T2, monovalent human PD-1 (purchased from Sino Biological Inc.) (human, UniProt Q15116 25-167); test: SPR Biacore T200; antibody captured on Protein A/G, monovalent human PD-1 as analyte
T2 construct: Bought reagent
T2 sequence (Q15116 25-167 limits assumed): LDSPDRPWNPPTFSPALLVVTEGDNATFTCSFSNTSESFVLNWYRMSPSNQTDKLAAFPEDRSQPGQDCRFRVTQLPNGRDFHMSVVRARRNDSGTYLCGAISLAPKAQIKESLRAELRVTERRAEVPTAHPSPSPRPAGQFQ
Excerpt: The first method was as follows: A CM5 sensor chip (GE healthcare) was activated by the Amine Coupling Kit (GE healthcare) and the Protein A/G fusion protein (Thermo Pierce) was immobilized on the chip with an amount of 2000 RU. FC3 (Flow cell 3) was a reference channel, and FC4 (Flow cell 4) was a sample channel.

[3] = biological target: T3, human PD-1-hFc (human, UniProt Q15116 25-170, biotin-labelled with EZ-Link Sulfo-NHS-Biotin in the second SPR method); test: SPR Biacore T200; biotinylated PD-1-hFc on SA chip, antibody as analyte
T3 construct: extracellular domain; also called PD-1-hFc antigen; PD-1-hFc fusion protein; not shown: Fc region of human IgG1
T3 sequence (Q15116 25-170): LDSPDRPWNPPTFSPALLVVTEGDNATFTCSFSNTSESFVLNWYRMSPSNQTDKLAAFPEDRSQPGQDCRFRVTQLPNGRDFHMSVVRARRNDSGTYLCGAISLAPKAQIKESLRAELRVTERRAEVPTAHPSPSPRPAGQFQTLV
Protocol: The second determination method was as follows: PD-1-hFc in Example 1 was biotin-labelled using EZ-Link™ Sulfo-NHS-Biotin (Thermo Fisher Scientific), and the specific operation was carried out according to the instructions provided by the manufacturer. After labeling, the excess biotin labeling reagent was removed by dialysis; the aforementioned biotinylated PD-1-hFc fusion protein was immobilized on a chip using Sensor chip SA (GE healthcare). FC3 (Flow cell 3) was a reference channel, and FC4 (Flow cell 4) was a sample channel.

[4] = biological target: T4, CD28-hFc (UniProt P10747 19-152); test: ELISA, plate coated with CD28-hFc at 2 ug/ml, detection with HRP goat anti-human Fab, OD450
T4 construct: Bought reagent; construct not described; not shown: hFc of a bought product
Protocol: (§1) The protein molecules such as CD28, CTLA-4, and ICOS belong to the same family as PD-1, and the sequences have homology. […] Each well was added with 200 μl of coating solution containing 1% BSA, and blocked at room temperature for 4 hours, then patted dry, and stored in a refrigerator at -20° C. until use. […] 100 μl of HRP-labeled goat anti-human Fab antibody (purchased from Sigma) diluted 1:5000 with PBST was added and incubated at room temperature for 1 hour; washed 3 times with PBST and patted dry. 100 μl of chromogenic solution (ELISA chromogenic solution A and chromogenic solution B were mixed in a volume ratio of 1:1 before use) was added to each well, then 100 μl of 2M H₂SO₄ stop solution was added to each well to stop the reaction. The OD value of each well was immediately measured at a wavelength of 450 nm using a microplate reader (Molecular Device).

[5] = biological target: T1, ICOS-hFc; test: ELISA, plate coated with ICOS-hFc at 2 ug/ml, detection with HRP goat anti-human Fab, OD450
Protocol: as §1

Chain of human PD-1 (Q15116 25-288): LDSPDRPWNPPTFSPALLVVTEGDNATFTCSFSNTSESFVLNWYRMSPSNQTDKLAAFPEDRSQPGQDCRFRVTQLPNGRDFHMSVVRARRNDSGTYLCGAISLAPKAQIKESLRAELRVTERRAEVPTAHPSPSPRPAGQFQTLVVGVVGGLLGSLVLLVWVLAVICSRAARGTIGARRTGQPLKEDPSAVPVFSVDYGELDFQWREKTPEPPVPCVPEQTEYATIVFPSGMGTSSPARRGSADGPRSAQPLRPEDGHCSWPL

| Binder | Cell proliferation (FIG. 3), MLR EC50 [1] [µg/mL] | IFN-γ secretion (FIG. 2), MLR EC50 [1] [µg/mL] | IL-2 secretion (FIG. 1), MLR EC50 [1] [µg/mL] | Kd [2] [nM] | koff [2] [s⁻¹] | kon [2] [M⁻¹ s⁻¹] | Kd [3] [nM] | koff [3] [s⁻¹] | kon [3] [M⁻¹ s⁻¹] | binding result [4] | binding result [5] |
| --- | --- | --- | --- | --- | --- | --- | --- | --- | --- | --- | --- |
| mAb1-15-Chimeric (antibody, human IgG4 S228P, kappa, V domains shown, Murine variable regions spliced to human IgG4 and Kappa constant regions; expressed in HEK293; also called chimeric antibody of murine antibody No. 1-15) VH: EVNLVESGGGLVKPGGSLKLSCAASGFTFSSYDMSWVRQTPEKRLEWVATISGGGRYTYYPDSVKGRFTISRDNAKNNLYLQMSSLRSEDTALYYCANRYDVDWFAYWGQGTLVTVSA VL: DIVLTQSPATLSVTPGDSVSLSCRASQSISNNLHWYQQKSHESPRLLIKYASQSISGIPSRFSGSGSGTDFTLSINSVETEDFGMYFCQQSNSWPLTFGAGTKLELNR | 0.0146 | 0.0284 | 0.0236 | 2.34 | 0.000148 | 62900 | – | – | – | – | – |
| mAb1-25-Humanized (antibody, human IgG4 S228P, kappa, V domains shown, Human IgG4/Kappa, expressed in HEK293E, purified on Protein A; also called humanized antibody No. 1-25) VH: EVKLVESGGGLVQPGGSLRLSCAASGFAFSSYDMSWVRQAPGKRLEWVATISGGGRYTYYPDTVKGRFTISRDNAKNSHYLQMNSLRAEDTAVYFCASPYGGYFDVWGQGTLVTVSS VL: EIVLTQSPATLSLSPGERATLSCRASQSISNFLHWYQQKPGQAPRLLIKYASQSISGIPARFSGSGSGTDFTLTISSLEPEDFAVYFCQQSNSWPHTFGQGTKVEIKR | – | – | – | – | – | – | – | – | – | no binding (tested: log 3.6 (about 4000 ng/ml)) | no binding (tested: log 3.6 (about 4000 ng/ml)) |

Continued by falling Kd [2], values first:

| Cell proliferation (FIG. 3), MLR EC50 [1] [µg/mL] | IFN-γ secretion (FIG. 2), MLR EC50 [1] [µg/mL] | IL-2 secretion (FIG. 1), MLR EC50 [1] [µg/mL] | Kd [2] [nM] | koff [2] [s⁻¹] | kon [2] [M⁻¹ s⁻¹] | Kd [3] [nM] | koff [3] [s⁻¹] | kon [3] [M⁻¹ s⁻¹] | Binder | binding result [4] | binding result [5] |
| --- | --- | --- | --- | --- | --- | --- | --- | --- | --- | --- | --- |
| 0.0172 | 0.0557 | 0.0165 | 4.28 | 0.000117 | 27300 | 0.0408 | 3.12e-05 | 764000 | mAb1-15-Humanized (antibody, human IgG4 S228P, kappa, V domains shown, Human IgG4/Kappa, expressed in HEK293, purified on Protein A; also called humanized antibody No. 1-15) VH: EVQLVESGGGLVQPGGSLRLSCAASGFTFSSYDMSWVRQAPGKRLEWVATISGGGRYTYYPDSVKGRFTISRDNAKNSLYLQMNSLRAEDTAVYYCANRYDVDWFAYWGQGTLVTVSS VL: EIVLTQSPATLSLSPGERATLSCRASQSISNNLHWYQQKPGQAPRLLIKYASQSISGIPARFSGSGSGTDFTLTISSLEPEDFAVYFCQQSNSWPLTFGQGTKVEIKR | – | – |
| 0.00669 | 0.0254 | 0.00995 | 0.231 | 4.14e-05 | 179000 | – | – | – | mAb1-25-Chimeric (antibody, human IgG4 S228P, kappa, V domains shown, Murine variable regions spliced to human IgG4 and Kappa constant regions; expressed in HEK293; also called chimeric antibody of murine antibody No. 1-25) VH: EVKLVESGGDLVKPGGSLKLSCVASGFAFSSYDMSWVRQTPEKRLEWVATISGGGRYTYYPDTVKGRFTISRDNARNTHYLQMSSLRSEDTALYFCASPYGGYFDVWGAGTTVTVSS VL: DIVLTQSPATLSVTPGARVSLSCRASQSISNFLHWYQQKSHESPRLLIKYASQSISGIPSRFSGSGSGTDFTLSISSVETEDFGMYFCQQSNSWPHTFGAGTKLELKR | – | – |
